According to a protein production outcome set (Wang et al. 2014):

Test: label from the status in PepcDB records
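Note: failed if final PepcDB status was selected cloned or expressed and not failed if soluble or beyond.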

Row | Sequence | protein production
1 | MSKHKFMIYFLTTTLVLPTFTTSIAHAEDTNEDDKMKSSSTQEEQTNHNEDVNDNNTNEASQPDDTQSDNTSSEAPTKEDSKNKIKREKSKSSNTSSEEKDDDNTSVSRSHQKRDKDTNNTYRTPLSPIFDATHSSGLPASNFLNPDLYQNGFSLTHLIASLFNFDSDISDYEQPASTNETDDDTHSTNEQDTDSQDQDQTEHSASSSDTTNREHDDVQQSSEKANQSDKTSRQDEIDTKQQSTANQDKDDASVSKALDAIDDFVSDETDDDKDNQGSNNTDTTNHQSYNDDTSTDSKNDSSKTSSSDSNSLSESALDTVLDKYSEDAKKTHQDFESSKKDNETNTSKGEKTKNNTTKASNPQLPTKKELEHKTTPAQSFEDDFKQSNTRSTSLFQTLPQLNGSDVTDGDITVVENKGTRDFIKSIAKDAHKIGQDKDLYASVMIAQAILESSSGNSTLAQAPNYNLFGIKGSYKGQSVNFNTLEAGSDNSMFSINAGFRKYPSTKASLEDYADLIKNGIDGNPTIYKPTWKHEAIDYRDATRHLSRTYATDPNYATKLNSLIKHYHLTDFDKKKMPDLDRYAKQTSSGEDASGSEFKSFEITDSSSPYPQGQCTWYVYERVQQFGKKVGSDWGDAHNWDNRAESDNYDVSQTPSTHSAVVFEAGQAGAHDIYGHVAFVEKVNKDGSIVISESNVKGLGIVSYRTIDASTAEDLHYIEPK | failed
2 | MRRLNRFKAPDEKVNTLFQVYKTISFWKVVKNTVVVEFGRFFPWMGGKRNIYRACLGMKIGKKTAIAYKVMPDLFFPEKITIGENSIIGYHTTILTHEYLLSEYHVGEVVIGKNVMVGANVTILPGIEIGDGAIVAAGAVVSKDVPPESFAYGNPLVIKEKAALEHHHHHH | not failed
3 | MADPRTDNRNRKIPDAQVDAIKVPPHSLEAEQSVIGGLLLDNERWDTVSEHVMTQDFYSRPHRLIFDGVKSILEAGKPLDLITLSEYLEQREQLEDVGGFAYLADLAKNTPSAANINAYAEIVAERALVRNLIGVANEIADAGYDPQGRNAEDLLDLAESKVFAIAEARTSENEGPKNVDSILERTLERIELLYKTPQDGVTGVNTGFTDLNKKTAGLQGSDLIIVAARPSMGKTTFAMNLCENAAMEQDKPVLIFSLEMPAEQIMMRMLASLSRVDQTKIRTGQLDDEDWARISSTMGILMEKKNMYIDDSSGLTPTEVRSRARRIAREHGGLSLIMVDYLQLMRVPALTDNRTLEIAEISRSLKALAKELNVPVVALSQLNRSLEQRADKRPVNSDLRESGSIEQDADLIMFIYRDEVYHPDSPLKGTAEIIIGKQRNGPIGSVRLTFQGHYSRFDNYAGPAFDDE | not failed
4 | MNKERGMKGTCLCGAIEVIAEPKNEVSLCHCSMCRKWSSGALHAVHCGPEVTFKGAEPKRYQSSDWAVRGFCGECGTNLFYHLLPTNEYILSAGLFDNPDFKLTLEIFTDEKPGYYELNPHSKKMTAQEVYDQFVPKE | failed
5 | MSVKSVLVFLSVSGSTMPMLILESDSIAEVKLRIQTCNGFRVRRQKLVFSGRELARNASRVKDYGVTGGSVLHLVLKLYDP | failed
6 | MPVRVSLELLRVGHCRHCERMVRADGHWHAVEFPALSVLIRHPQRGALLYDTGYAAHFFRATDAWPERLYRLTTPVRLPAHETLGAQLSKRGVALDDIAWCLISHFHADHVGGLRDLPNARFMCSRADHQQLRSCSRVGGLRRALLPQLLPDDFDQRLQFADQAPQRALTGAWQGLGPAYDLFEDGSVLAVSLPGHVPGQMGLRVRDQHDREVLLCADAVWSSATWATLQWPAWPTRLLMHDWHAFQRTVHRLHALSHAHPELAILPSHCQPSLDRYQPEWR | failed
7 | MINSGTLITKIEELQSTLAKMDIALGTVDEAIVWTDGTGQIQWCNTAFDHLMGKLHILILGKNLVELLPLHRNSQPLEVSHHPFTIIVATQQKFTDHYEFNQNGKWLHLEIMTSPLMNAQGAVLVIRDISDRHLQEQTLQQLNENLEKRVLERTQAVSLIN | failed
8 | MRTVPSLSMSKSRCNMLASTLDRPSPEDSQTLAEVERTITSGVGALCFSRGLERRYQTETRLQRREFLTAMGIGGSLIYNLFLITDWLILRDVFVYVAIGRLCLITPMFIIMLILARRLASRRAMETTAAVATVLCSLMPMVVMTYSESPYQIFYQLGMLLIMVYCTMIQQLPLRHAAAALSCMLIIQLVTTYIADFADFVIWQANALLFVSTVMLLLMASYFLERASRLSYLFALRGRLLQVQLLEFARTDALTRLFNRRYQDEVLTSVWERARKKQANVAIILLDIDHFKSYNDNYGHPQGDVCLKLLCKAIQQSANDGGAVAFRFGGEEVLVLMNADADQATKMAETLKATVAALKLPHPALGEDAHVTISLGVASGIAPLITYDTLISAADNALYAAKHAGRNCVFCQP | failed
9 | MTIISTIFFFSFSVFFVIRYLKLKKIYDLLMIFVGLYAGLINMKLMSLSTTVSYVLDTIVIVLVIISVILFLKDKKNY | failed
10 | MSTPRQILAAIFDMDGLLIDSEPLWDRAELDVMASLGVDISRRNELPDTLGLRIDMVVDLWYARQPWNGPSRQEVVEQVIARAISLVEETRPLLPGVREAVALCKEQGLLVGLASASPLHMLEKVLTMFDLRDSFDALASAEKLPYSKPHPQVYLDCAAKLGVDPLTCVALEDSVNGMIASKAARMRSIVVPAPEAQNDPRFVLANVKLSSLTELTAKDLLG | not failed
11 | MSLGNNSAKGTATGNATALWRNAQLATLNPAMDGIGAVENAVIAVRNGRIAFAGPESDLPDDLSTADETTDCGGRWITPALIDCHTHLVFGGNRAMEFEMRLNGATYEEIAKAGGGIVSSVRDTRALSDEVLVAQALPRLDTLLSEGVSTIEIKSGYGLDIETELKMLRVARRLETLRPVRIVTSYLAAHATPADYKGRNADYITDVVLPGLEKAHAEGLADAVDGFCEGIAFSVKEIDRVFAAAQQRGLPVKLHAEQLSNLGGAELAASYNALSADHLEYLDETGAKALAKAGTVAVLLPGAFYALREKQLPPVQALRDAGAEIALATDCNPGTSPLTSLLLTMNMGATLFRMTVEECLTATTRNAAKALGLLAETGTLEAGKSADFAIWDIERPAELVYRIGFNPLHARIFKGQKVSPEGHHHHHH | not failed
12 | MKYLCLIYFDEAKLAAVPAEELAAIVDECMTYSDQLGKAGHYIASHALQSVQTATTLRHQGGRLAMTDGPFAETKEQLGGFYLIEARDLNQALQIAAKIPPGRLGCVEVRPVKEWE | not failed
13 | GTVLVSIKSSLPENNFFDDALIDELLQQFASFGEVILIRFVEDKMWVTFLEGSSALNVLSLNGKELLNRTITIALKSP | not failed
14 | MAKYKVGMVSLGCDKNRVDSEIMLGMVQNEYELTNNPKEADIIIVNTCGFIEKAKQESINTILDMAKYKTSHNCKLLIATGCLTQRYGDELLELMPEIDIMLGVNDYAKINEAIMNFINGNNEKVKATNYSDVSINEGLRLITTDKATAYLRIAEGCDNFCTYCIIPKIRGKFRSRALESIVEEAKKLAENGVKELILIAQDTTNYGIDIYGEKKLHLVLRELAKIEGIEWIRVLYCYPEAIYDELIKEISVNDKVCNYLDLPIQHISNNVLKRMGRKTTKEEIIGKINDLRKNVPNIVLRTSLIVGFPGESCEDFNELKDFIKTIKLDKVGVFTYSREEGTPAAIMEDQIDEEVKKAREEEIMLLQKEVSEEINKNKVGREYDVLIEKFNGEYYIGRSYEMAPDIDGCIYVKGNGAKKDQFCKVKIEKALEYDLVGVVCNESCKLEHHHHHH | failed
15 | MKNFLETIEDMILIINREGRLLYANTAVPKKLGYPHEELMSMHILTITSAGKMAEGEKILAELFAGKKESLPLSLEKKEGTSIPAKARIWQGKWHNEPCLFAIIKDLSKEERASSPPFLEHHHHHH | not failed
16 | MGKKYEIFLNENEHSLITPKVSFKEILRYYYLYPKNAIPSFKLPFFKPDLSGFSTPHITWLGHSSLFISFKEYKILIDPIFNTHASPISFINKAFKNAPVYNINDFNEIFAVIITHSHFDHLDAKSVKALKDKAKFFITPLKVGNYLKSYGVSEKKIIELDWWSGIEFGDLKIMATPAQHSSSRGDGKNKTLWASFVMEFLSVDKRVFFSADGGYFTHFKKIGEYFGSFDLACLESGQFNIAWPYSHSFPEQILKEAKDLNAKAVMPIHWGRFLAGTHAWNEVVKFLYENLDLPLITPKMGEAYEVGAKLEHHHHHH | not failed
17 | DNYRTTGIATIEVFLPPRLKKDRKNLLETRLHITGRELRSKIAETFGLQENYIKIVINKKQLQLGKTLEEQGVAHNVKAMVLELKQS | not failed
18 | MTHTHRPAALEVHHPQPLAVHPTVAPLVTVQPGPTPAVQSIVLPDGRVVTGYTLTPAPALAPVDARPAVSRTAVNVALGGVGFAAVCGGLVLLTTFIAALTTFISQLITLAAVIFGGWIAVQILGGTRHTGRGGTTINIRKAVIKRSHFHG | failed
